Source: patent US8865222B2, “Beta-casein assemblies for enrichment of food and beverages and methods of preparation thereof” (Technion Research and Development Foundation Ltd., priority 2008, dated 2014)
Several values for one entry are separate records, joined by “and”; a condition that tells them apart may be missing. Identical values can stand only once. Entries after “also recorded” stand apart in the source; their conditions may differ.

How the values were obtained:
[1] = Small angle X-ray scattering (SAXS) of beta-casein micellar solutions; assay type: physicochemical; settings: for aggregation number: pH 6.7, 0.05M NaCl
Method: Small Angle X-ray Scattering (SAXS): The small angle x-ray scattering equipment consisted of a SAXSess camera (Anton-Paar, Graz, Austria) connected to an x-ray generator (Philips, PW1730/10) operating at 40 kV and 50 mA with a sealed-tube Cu anode. A Göbel mirror was used to convert the divergent polychromatic x-ray beam into a focused line-shaped beam of Cu Kα radiation (λ=0.154 nm). The 2D scattering pattern was recorded by a PI-SCX fused fiber optic taper CCD camera from Princeton Instruments, which is a division of Roper Scientific, Inc. (Trenton, N.J., USA). The used CCD detector features a 2084×2084 array with 24×24 μm pixel size (chip size: 50×50 mm). The CCD was operated at −30° C. with 10° C. water-assisted cooling to reduce the thermally generated charge. Cosmic ray correction and background subtraction were performed on the 2D image before further data processing. The 2D image was integrated into the one-dimensional scattering function within a band of 10 mm. The measurement time was 30 min for each scattering curve (6 images of 5 minutes were taken to assist the cosmic ray correction).
Determination of the Beta-Casein Assemblies Molecular Weights.
The molecular weight of the scattering aggregates were calculated according to Eq. 1:
[formula] where M is the molecular weight, dΣ(0)/dΩ (cm^−1) the forward scattering intensity at q=0, c (g/cm^3) the beta-casein concentration, NA the Avogadro number, and ΔρM (cm/g) the scattering length difference per mass, given by: ΔρM=Δρ v (2)
The scattering length difference Δρ (cm^−2) was calculated using the known chemical composition of the protein and the solvent, and v (cm^3/g), the specific volume of the protein in the solution that was calculated via density measurement of the solvent and the solution. The micelle aggregation number was then calculated by dividing the molecular weight of the micelles determined with Eq. 1, by the molecular weight of a single protein molecule.
For a particle of arbitrary shape with a scattering density difference of Δρ(r), the pair distance distribution function p(r) (PDDF) is given by: p(r)=r^2Δ ρ^2(r) (3) where Δ ρ^2(r) is the convolution square of Δρ(r) averaged for all directions in space. The PDDF is related to the scattered intensity I(q) by a Fourier transformation, and it enables the determination of the overall shape and size of the scattering objects.
[formula] where q is the magnitude of the scattering vector q, defined as
[formula] λ is the wavelength of the incident radiation and θ is the angle between the scattered and incident beam. The function ƒ(r)=p(r)/r (6) is useful to identify flat plate-like particles, although it has no direct physical meaning. For lamellae, this function starts with a linearly increasing part and becomes almost flat when r is equal to the thickness of the lamella. For flat particles with a finite base area, the outer part decreases linearly because of boundary losses. The thickness of the lamella can then be read from the transition point. […] The standard error of the analytical ultracentrifugation data is 5%, and that of the Rg is 4%. The analysis supports the statistical significance and validity of the results.
• Characterization of the beta-casein micelles by SAXS: We have applied SAXS measurements to determine the shape and dimensions of the micelles at low pH and at neutral pH, more precisely, and to evaluate the micelle molecular weight (i.e., the aggregation number). The scattering curves of 20 mg/mL beta-casein in lactic acid solution (pH 2.6, IS 0.0022) at different temperatures are shown in FIG. 3a. […] Consequently, the calculated Pair Distance Distribution Functions (PDDF), are also similar (FIG. 3b). The maximum micelle dimension is approximately 25 nm at all temperatures. The area under the PDDF curve, which is proportional to the weight of one particle, is almost constant. To calculate the aggregation number, the density of the solvent and the solution was measured at various temperatures (Table 2). […]

[2] = Storage stability of beta-casein assembly solutions; assay type: physicochemical
Method: Preparation of beta-casein assemblies: weighted amounts of lyophilized bovine beta-casein are dissolved in low-pH solution (e.g. ˜6% by weight of lactic acid solution or hydrochloride acid solution, ˜pH 2.1), typically at concentrations ranging from 0.1 mg/mL up to at least 50 mg/ml, to the desired pH (2.5-2.8), below the pI. The pH can be adjusted to the desired values using appropriate buffers. Mixing is done at room temperature, and the solution is equilibrated at 4° C. for ˜36 hr, allowing complete solubilization and formation of the protein assemblies. Thereafter, the solutions can be held at any temperature between 1 and 60° C. Similarly, to prepare beta-casein micelles at neutral pH, weighted amounts of lyophilized protein are added to a buffer at neutral pH (e.g., HEPES buffer, or PBS), at concentration ranging from 0.1 mg/ml to ˜40 mg/ml. Complete solubilization of the protein is achieved within ˜36 hr, at 4° C. A transparent solution is obtained, containing unique nano-sized beta-casein assemblies. The protein solutions are filtered through a porous membrane of 0.45 micron pore size. The beta-casein concentration was determined by measuring the absorbance at 280 nm by an Ultrospec 2000 UV/Visible spectrophotometer (Pharmacia Biotech, England), using an extinction coefficient of 4.6(1%) mM^−1cm^−1. […]

B1: beta-casein: lyophilized bovine beta-casein (~24 kDa milk protein) self-assembled into nano-sized micelles at low or neutral pH (protein, UniProt P02666 16-224, looked up)
Beta-casein: RELEELNVPGEIVESLSSSEESITRINKKIEKFQSEEQQQTEDELQDKIHPFAQTQSLVYPFPGPIPNSLPQNIPPLTQTPVVVPPFLQPEVMGVSKVKEAMAPKHKEMPFPKYPVEPFTESQSLTLTDVENLHLPLPLLQSWMHQPHQPLPPTVMFPPQSVLSLSQSKVLPVPQKAVPYPQRDMPIQAFLLYQEPVLGPVRGPFPIIV
For B1, the maximum micelle dimension ([1]; 20 mg/mL, pH 2.6, IS 0.0022, all temperatures 4-40 °C) was “approximately 25 nm”, the aggregation number ([1]; 20 mg/mL, 1 °C) was 7 and the aggregation number ([1]; 20 mg/mL, 60 °C) was 210. For the same molecule, the Nagg ([1]; pH 2.6, 4 °C, 2 wt % beta-casein, SAXS) was 8, the Nagg ([1]; pH 2.6, 16 °C, SAXS) was 10 and the aggregation state ([1]; pH 2.6, 25 °C, 0.1 wt %) was “monomers”. The aggregation state ([1]; pH 2.6, 25 °C, 0.25 wt %) was “dimers”, the CMC ([1]; pH 2.6, 25 °C, SAXS) was 0.1-0.2 wt % and the Nagg ([1]; pH 2.6, 25 °C, SAXS) was 11. For the same molecule, the Nagg ([1]; pH 2.6, 40 °C, SAXS) was 9, the “thickness of the particles” value ([1]; pH 2.6, all temperatures, from f(r) transition point) was ~3.5 nm and the “Micelle Dimensions” value ([1]; pH 2.6, as a function of temperature 4-40 °C) was “Constant”. For the same molecule, the “typical sizes of beta-casein micelles” value ([1]; pH 7.0, ionic strength 0.1, depending on protein concentration) was 13-15 nm and 22-25 nm, the “colloidal / storage stability of sterile solution” value ([2]; sterile) was “at least several months; also recorded: colloidally stable for months” and the “storage stability of the solution” value ([2]; stored at 4 °C) was “several weeks”.
